We go through 4 compounds from publication PMC7861197 (Molecular pharmaceutics, 2020).

Data set [1] can be described thus: Plasma pharmacokinetics of PLS-FTC vs FTC in rats.
A short description of data set [2]: FTC concentrations in rat tissues by LC-MS/MS. Format: in vivo, Sprague Dawley rats. To be noted: for concentration at 4 h: male, Sprague Dawley, rat, iv.
The conditions of data set [3]: rat axillary lymph nodes, 4 h post dose.
Another data set deals with human PBMCs. As to conditions: 24 h incubation at 10 ug/mL FTC, normalized to soluble protein.
Data set [4] has as its system wild type Raw 264.7 cells. The experiment in a line: Confocal microscopy of PLS-488 uptake, wild type RAW 264.7 cells. It is filed as cell-based, murine.
Data set [5] can be described thus: Lymph node distribution of PLS-488 in mice, anti-Alexa488 immunohistochemistry. To be noted: 6 h and 24 h. It is filed as in vivo, C57BL/6 mice.
For data set [6], the system named is SR-A1 deficient RAW 264.7 derivative cell line (Clone 1/2). Kind of data set: Flow cytometry of PLS-488 uptake, SR-A1 deficient Clone 1/2. Format: cell-based, murine. As to conditions: SR-A1 deficient Clone 1/2, 24 h incubation.
Data set [7] deals with SR-A1 knockout Raw 264.7 cells (clone 1/2). The experiment in a line: Confocal microscopy of PLS-488 uptake, SR-A1 deficient RAW cells. Format: cell-based, murine. As to conditions: SR-A1 deficient RAW cell line.
The subject of data set [8] is wild-type RAW 264.7 cells. The experiment in a line: Flow cytometry of PLS-488 uptake, wild-type RAW 264.7 cells. As to conditions: wild-type RAW 264.7, 24 h incubation. It is filed as cell-based, murine. (Flow cytometry measures light scatter and fluorescence of single cells or particles in a stream.)
A short description of data set [9]: In vitro drug release in human plasma with or without esterase inhibitor PMSF. As to conditions: PMSF-treated vs untreated human plasma.
The target in data set [10] is T1, scavenger receptor A (SR-A) (Mus musculus, UniProt P30204).
T1 sequence (P30204 1-458): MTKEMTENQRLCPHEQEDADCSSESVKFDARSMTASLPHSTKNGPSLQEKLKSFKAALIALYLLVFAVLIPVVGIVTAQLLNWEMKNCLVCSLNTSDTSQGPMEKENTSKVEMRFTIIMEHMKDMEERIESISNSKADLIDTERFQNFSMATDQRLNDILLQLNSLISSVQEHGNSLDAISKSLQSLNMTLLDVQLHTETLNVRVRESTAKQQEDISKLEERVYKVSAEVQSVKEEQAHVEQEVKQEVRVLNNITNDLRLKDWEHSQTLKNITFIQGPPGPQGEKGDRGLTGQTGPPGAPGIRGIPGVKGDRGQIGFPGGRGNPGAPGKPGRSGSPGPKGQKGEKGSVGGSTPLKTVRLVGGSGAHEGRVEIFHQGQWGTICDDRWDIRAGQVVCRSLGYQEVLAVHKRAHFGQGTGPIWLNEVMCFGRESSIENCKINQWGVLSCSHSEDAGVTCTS
Kind of data set: Scavenger receptor A competitive inhibition studies in RAW 264.7 cells. Format: cell-based, murine. As to conditions: RAW 264.7, 3 h co-treatment, 200 μg/mL poly I or poly C, PLS-488 4.22 ng/mL to […] (Figure 2A).

[11] abbreviates: male, Sprague Dawley, rat, plasma, iv, 10 mg/kg.
Where [12] appears, read: FTC in plasma, rats, i.v. bolus 10 mg FTC equivalents/kg, mean ± SD (n=8).
[13] abbreviates: rats, i.v. bolus 10 mg FTC equivalents/kg.
[14] abbreviates: rats, 4 h post i.v. injection, 10 mg FTC equivalents/kg, mean ± SD, n=3.

One may read the AUC as concentration integrated over time. As a reminder, the Cmax is the peak of the concentration-time curve. For orientation: MRT means a mean duration of stay, worked out from the concentration-time curve. One may read the Vd as the apparent volume that relates the amount in the body to the concentration in plasma or blood. Lower therefore signals little distribution into tissue. A word on the clearance: it is the rate of elimination divided by the concentration. Read a low clearance as a low capacity for elimination. For orientation: half-life means the time in which the quantity being followed falls by half. Read a low half-life as rapid decline. On to `Nc1nc(=O)n([C@@H]2CS[C@H](CO)O2)cc1F` [FTC, Emtricitabine, reference compound], for which, in [1] (setting [11]), the AUC was found to be 6400 ± 1010 ng·h/mL, the C0 stood at 10600 ± 2950 ng/mL, the peak concentration (Cmax) stood at 5850 ± 853 ng/mL and the mean residence time (MRT) is 1.8 ± 0.32 h. Further, in data set [1] (setting [11]), the Vd was 2.94 ± 1.09 L/kg, the clearance is 26.7 mL/min/kg and the half-life was 14.1 ± 5.17 h. Moreover, the concentration at 4 h in [2] (axillary lymph node, 10 mg FTC equivalents/kg) came to 109 ± 37 ng/g. In data set [2] (inguinal lymph node, 10 mg FTC equivalents/kg), the concentration at 4 h is 87 ± 51 ng/g. In addition, the concentration at 4 h in data set [2] (liver, 10 mg FTC equivalents/kg) is 119 ± 51 ng/g. The concentration at 4 h in [2] (popliteal lymph node, 10 mg FTC equivalents/kg) was determined as 105 ± 64 ng/g. In data set [2] (spleen, 10 mg FTC equivalents/kg), the concentration at 4 h came to 106 ± 44 ng/g. For the same compound, in data set [3], the “FTC signal abundance (IR-MALDESI MSI)” value is recorded as 18.5 ± 16.6 arbitrary units and the frequency of detection is reported as 2.9 ± 2.8 % of sampling locations with measurable drug. Moreover, in the data set with human PBMCs, the “FTC concentration in PBMCs” value came to 182 ± 18 ng/mg protein.

“AlexaFluor488-labelled poly(L-lysine succinylated) [PLS-488]”: the “PLS-488 uptake by confocal microscopy” value in data set [4] (wild type Raw 264.7, 1 μg/mL, 0.5 h) is listed as “uptake was observed at the earliest 0.5 h time point”; in data set [7], “greatly reduced PLS-488 uptake”. In addition, in data set [4] (wild type vs SR-A1 deficient Raw cells, 1 μg/mL, 24 h), the “PLS-488 fluorescence signal after 24 h treatment” value was “markedly greater in the wild type Raw 264.7 cells than the SR-A1 deficient Raw cells”. For the same compound, the “accumulation in lymph nodes (IHC)” value in [5] (intradermal injection into foot pads) is “robust accumulation of PLS-488 in regions of the draining (popliteal) and peripheral (axillary and inguinal) lymph nodes”; in data set [5] (intravenous tail vein injection) it was “early accumulation of PLS-488 into myeloid-rich regions of the deep mesenteric lymph nodes by 6 h, with later accumulation in peripheral lymph nodes”. Also, the “uptake of PLS-488 by flow cytometry” value in [6] is reported as “no uptake”; in data set [8] it was “uniform uptake”.

The Vss is the apparent volume that relates the amount in the body to the concentration in plasma or blood. “poly(L-lysine succinylated) FTC prodrug [PLS-FTC]”: in [1] (setting [12]), the AUCall was 11100 ± 3281 ^* h*ng/mL, the C0 was determined as 4901 ± 3621 ng/mL, the Cl was found to be 17.55 ± 10.3 mL/min/kg and the Cmax is 3839 ± 1734 ng/mL. Moreover, in data set [1] (setting [12]), the mean residence time (MRT) was determined as 3.64 ± 0.47 h, the T1/2 is reported as 6.99 ± 2.62 h and the Vss amounted to 3.816 ± 2.254 L/kg. In data set [1] (setting [13]), the “fold higher area under the concentration-time curve vs FTC control” value is 2 fold, the “fold higher mean residence time vs FTC control” value stood at 2 fold, the “fold lower concentration time zero vs FTC control” value was found to be 2 fold and the “fold lower half-life vs FTC control” value was 2 fold. Further, in data set [9], the “prolongation of release half-life in PMSF-treated plasma” value is reported as ~ 2 fold. Besides, in data set [2] (setting [14]), the “FTC concentration in axillary lymph node” value came to 811 ± 65 ng/g, the “FTC concentration in inguinal lymph node” value came out at 587 ± 56 ng/g, the “FTC concentration in liver” value is listed as 2,257 ± 143 ng/g and the “FTC concentration in mesenteric lymph node” value is listed as 850 ± 540 ng/g. In [2] (setting [14]), the “FTC concentration in popliteal lymph node” value is given as 864 ± 330 ng/g and the “FTC concentration in spleen” value is on record as 1,788 ± 164 ng/g. For the same compound, in data set [2] (rats, 4 h post injection, lymph nodes, liver, spleen), the “fold higher concentrations in lymphatic tissues compared to free FTC control” value is 7 to 19 fold. Besides, the “FTC concentration in LN inguinal at 24 h” value in data set [2] (rats, 24 h after i.v. bolus) is “below limit of quantitation”.

Consider “poly(cytidylic acid) potassium salt [poly C]”, for which the “inhibition of PLS-488 binding to macrophages” value in data set [10] was “not with the control polymer poly C”.
